Measurements from the nanobody polyreactivity screen of Harvey et al. (2022).

Test: yeast display, Sf9 membrane polyspecificity reagent, FACS + sequencing; frameworks hold sequencing errors
In short: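 Genes from sorted yeast were amplified by colony PCR, read by MiSeq 2 × 250 sequencing and filtered on CDR length. These cells carried a synthetic nanobody library in Saccharomyces cerevisiae BJ5465 and were sorted by FACS into low and high (top ~1%) gates on anti-HA and streptavidin fluorescence. Polyreactivity is labelled according to the gate of origin.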

Sequence	polyreactivity (PSR sort gate)
QVQLVESGGRLVQAGGSLRLSCAPSGFIFGYYAMGWYRQAPGKERELVAAISPSGGRTYYADSVKGRFTISRDNAKITVFLQMNSLKPEDTAVYYCAAEYAYSLDPEEDYWGQGTQVTVSS	high polyreactivity
QVQLVESGGRLVQAGGSLRLSCDPSGRTFWYYAMGWYRQAPGKERELVASISLSGSRTNYADSVKGRFTISRDNAKNTVYLQMNSLKPEDTAVYYCAADNFRQFGEYDYWGQGTQVTLSS	low polyreactivity
QVQLVESGGRLVQAGGSLRLSCSASGFTLIHYAMGWYRQAHGKERELVAGITTSGGSTYYADSVKGRFTISRDNAKNTVYLQMNSLKPEDTAFYYCAAGSTTGQTGKVGYWGQGTQVTVSS	high polyreactivity
QVQLVESGGRLVQAGGSLRLSCSASGSTFRRNAMGWYRQAPGKERELVAAISWSSTRTYYADSVKGRFTISRDNAKNTVYLQMNSLKPEDTAVYYCAADSYGGGFQLYSYVSGLYYWGEGTQVTVSS	high polyreactivity
QVQLVESGGRLVQAGGSLRLSWAASGRILWSNRMGWYRQAPGKERELVAAITYSGDTTYYADSVKGRFTISRDNEKNTVYLQMNSLKPDDTAVYYCAVEDAGQGGDYWGQGSQVTVSS	low polyreactivity
QVQLVESGGRLVQAGGSLSLSCAASGFIFWSYAMGWYRPAPGKERELVAAISARGGSTYYADSVKGRFTISRDNAKNTVYLQMTSLKPEDTAVYYCATYPTYEYDYWGQGTQVTLSS	high polyreactivity
QVQLVESGGRLVQAGGSLSLSCAASGRTFGGYNMGWYRQAPGKERELVAAINWSGTTYYADSVKGRFTISRDNAKNTVYLQMNSLKPVDTAVYYCAASLVSYYGLARDSVDYWGQGTQVTVSS	low polyreactivity
QVQLVESGGRLVQAGRSLRLSCAASGFTFYDYAMVWYRQEPGKERELVARINGGGGTNYADSVKGRFTNSRDNAKNTVYLQMNSLKPEDTAVYYCAAEFGSRPPYDYWGQGTQVTVSS	low polyreactivity
QVQLVESGGRLVQAGRSLRLSCAASGSTFYLYAMGWYRQAPGKERELVASISIGGSTNYADSVKGRFTISRDNAKNTVYLQMNSLKPEDTAVYYCNADYYYVRTVRRLGYWGQGSQVTVSS	low polyreactivity
QVQLVESGGRLVQARGSLRLSCAASGRIFAYYTLGWYRQAPGKERELVAVISGSGGRTYYADSVKGRFTISRDNAKNTVYLQMNSRKPDDTAVYYCAAYYQGIKYDYWGQGTQVTVSS	high polyreactivity
QVQLVESGGRLVQAVGSLRLRCAPSGNTFPVYAMGWYRQASGKERELVATITSGGSTNYADSVKGRFTISRDNAKNTVYLQMNSLKPEDTAVYYCARRAVYSKRRYDYWGQGTQVTVSS	low polyreactivity
QVQLVESGGRLVQEGGSLRLSCAASGRTFSKYAMGWYRQAPGKERELVAAITWRGGRTYYADSVNGRFTISRDNAKNTVYLQMNSLKPEDTAVYYCAADPSIYRIYQYTNRYDYWGQGTQVTVSS	high polyreactivity
QVQLVESGGRLVQEGGSLRLSCAASGRTLYDYAMGWYRQAPGKERELVAGITWRGGSTSYAASVKGRFTISRDNAKNTVYLEMNSLKPEDTAVYDCATDGDERMDYWGQGTQVTVAS	low polyreactivity
QVQLVESGGRSVQAGGSRRLSCAASGFSFHYYAMGWYRAAPATERELVAAITSRGTATYYADSVKGRFTISRDTAKITVDLLMNCLKPEDTAVYYCAKASTERMGSWGQGTQVTVSS	high polyreactivity
QVQLVESGGRVDQAGGSLRLRCAASGRTFPVYAMGWYRQAPGKERELVAAITRCDDSTYYADSVKGRFTISRDNAKNTVYFEMNSLKPEDTAVYYCARSSRESYEYDYWGQGTQVTVSS	low polyreactivity
QVQLVESGGSLVQAGGSLLLSSAASLRTFGVNDIGWYRKAPGKERNFVAAISYSDTSTYYADSVKVSFTISRDNAKNTVYLQMNSLKPEDTAVYYCAVETYLQYDNGYGHDYWGQGTQVTVSS	low polyreactivity
QVQLVESGGVFVQAGGTLRLSCAASGITLNGYVMGWYRQAPGKEREFVAVITTRGGSTYYADSVKGRFTISRDNAKNTVYLQMNSLNPEDTAVYYCAARYVREYNYWGQGTQVTVSS	high polyreactivity
QVQLVESGGVLDPAGGSLRLSCAASGSTFISNAMRWYRQAPGKERELVATITYSDATTYYADSVKGRFTISRDNAKNTVYLQMNSLKPEDTAVYYCNTRFFRPLWGYNYWGQGTQVTVSS	low polyreactivity
QVQLVESGGVLLQAGGSLRLSCAASGRIFTLYDRGWYRQAPGKEREMDAAISNSAGSTYYADSVKGRFTISRDNAKNTVYLQMNSLKPEDTAGYYCARSYSYWGYRSVYYWGQGTQVTVSS	high polyreactivity
QVQLVESGGVLVEAGGSLRLSCASSGRIFTYYSMGWYRQAPGKERELVAAISRSGRTYYADSVKGRFTISRDNAKNTVYLQMNSLKPEDSAVYFCAAEYYYSWFEYWGQGTQVTVSS	high polyreactivity
QVQLVESGGVLVQAGASLRLSCAASVFTFRRYAMGWYRQAPGKERELVAAITRDDSTNYADSVKGRFTISRDNAKNTVYLQMNSLKPEDTAVYYCAARLWYPYYYWGQGTQVTVSS	high polyreactivity
QVQLVESGGVLVQAGGILRLSCAESGSIFSYYAMVWYRQAPWKERELVASISWNGTSTYYADSVKGRFTISRDNSKNTVYLQMNSLKPEDTAVYYCNVRFNYRGTYDYWGQGTQVTVSS	low polyreactivity

Sequence	polyreactivity (PSR sort gate)
QVQLVESGGVLVQAGGSLRISCAASGSTFYSYDMGWYRQAPGKERELVAAISSSSGSTYYADSVKARFTISRDNAKNTVYLQMNSLKPEDTAVYYCKRGRRYSHKYDYWGQVTQVTVSS	high polyreactivity
QVQLVESGGVLVQAGGSLRLSCAAAGRIFIWNAMGWYRQAPGKERELDAAISSGGTYYADSVKGRFTISRDNAKNTVYLQMNSLKPEDTAVYYCAADWEVYVSEFVYWGQGTQVTVSS	low polyreactivity
QVQLVESGGVLVQAGGSLRLSCAASGFIFKYYAMGWYRQATGKERDLVAAISSSGGRKYYADSVKGRFTISRDNAKNTVYLHMNRLKPEDTAVYYCNKATFVTYYFLGYDYWGQGTQVTVSS	high polyreactivity
QVQLVESGGVLVQAGGSLRLSCAASGFTFAYYAMGWYRQAPGKVRELVASITRSGGSTYYADSVKGRFTLSRDNAKNTVYLQMNSLKPEDTAVYYCAARYGLVRDVIPYDYWGQGTQVTVSS	high polyreactivity
QVQLVESGGVLVQAGGSLRLSCAASGFTFYRYDMGWYRQAPVKERELVAAITWSGGSTYYADSLKGRFTISRDNAKNTVYLQMNSLKPEDTAVYDCAAENYDGGFEYWGLGTQVTVSS	low polyreactivity
QVQLVESGGVLVQAGGSLRLSCAASGFTLKWNAMGWYRQAPGKERELVARISRSGGSTNYADSVKGRFTISRDNAKNTVYLQMISLKPEDTAVFYCNTPSSREMDYWGQGTQVTVSS	low polyreactivity
QVQLVESGGVLVQAGGSLRLSCAASGITFEYYAMGWYRQAPGKERELVAAISWSGSSTYYADSVKGRFTISRDNAKNTVYLQMNSLKPEDTAVYYCNADSAWWASDDQYDYWGQGTQVTVSS	low polyreactivity
QVQLVESGGVLVQAGGSLRLSCAASGITLPVYGMGWYRQAPGKERELVAVIDIVGITNYADSVKGRFTISRDNAKNTVYLQMNSLNPEDTAVYYCAKRYVYIADGGEYYYWGQGTQVTVSS	low polyreactivity
QVQLVESGGVLVQAGGSLRLSCAASGLIFKFYAMGWYRQAPGKERELVARISSSGGSTYYADSVKGRFTTSRDNAKNTVYLQMNSLKPEDTAVSYCAAGAYYVDRYARSSIFSYYYWGQATQVTVSS	high polyreactivity
QVQLVESGGVLVQAGGSLRLSCAASGLTIQTNAMGWYREAPVKERELVAAISRRGSSTYYADSVKGRFTISRDNAKNTVYLQMISLKPEDTAVYYCATGGVLYPYWRGKRYGYWGQGTQVTVSS	high polyreactivity
QVQLVESGGVLVQAGGSLRLSCAASGRIFRYYAMGWYRQAPGKERELVAAIRYRSGGTYYADSVKGRFTISRDNAKNTVYLQMNSLKTEDTAVYYCNADKRLRGHGYDYWGEGTQVTVSS	high polyreactivity
QVQLVESGGVLVQAGGSLRLSCAASGRIFSYYAMGWYRQAPGKERELVARITSRGASTYYADSVKGRFTISRDNAKNTVYLQMNSLKPEDTAVYYCAARKDSTRRFDYWGQGTQVTVLS	high polyreactivity
QVQLVESGGVLVQAGGSLRLSCAASGRTFGHYAMGWYRQAPGKERELVAAITRDDGTNYADSVKGRFTISRDNAKNTVYLQMNSLKPEDTAVYYCDRDVLEKYRQSWGYVPLQGYDYWGQGTQVTVSS	low polyreactivity
QVQLVESGGVLVQAGGSLRLSCAASGRTFNLIAMGWYRQAPGKERELVAAISRSGGSTYYADSEKGRFTISRDNAKNTVYLQMNSLNPEETAVYYCNASALGRPYYRGSYFVFQGYEYWGLGTQVTVSS	low polyreactivity
QVQLVESGGVLVQAGGSLRLSCAASGSIFCVNAMGWSRQAPGKERELVAAISWRGASTYYADSVKGRFTISRDNAMNTVYLQMNSLKPEDTAVYYCAAKCTGGDPYYAFDYWGQGTHVTVSS	low polyreactivity
QVQLVESGGVLVQAGGSLRLSCAASGSIFEPYVMGWYRQPPGKERELVAAIRQSGGSTYYADSVKGRFTISRDNAKNTVYLQMNSLKPEDTAVYYCNAEQNPSGLYDYRGVEGEMGYWRQGTQVTVSS	low polyreactivity
QVQLVESGGVLVQAGGSLRLSCAASGSIFGNYAMGWYRQAPGKETELVAAISYRGGSTYYADSVKGRFTISRDNAKNTVYLQMNSLKPEDTAVYYCNAGGRRRIFAHSSTGDYWGQGTQVTVSS	high polyreactivity
QVQLVESGGVLVQAGGSLRLSCAASGSIFSSNAMGWYRQAPGKERELVAAISSSGGSTYYADSVKGRFTISRDNAKNTVYLQMNSLKPEDTAVYYCATGKQVYGHYYWGQGTQVTVSS	low polyreactivity
QVQLVESGGVLVQAGGSLRLSCAASGSLFILYALGWYRQEPGKEREFVASISRSGSTYYADSVKGRFTISRDNAKNSVYLQMNSLKPEDTAVYYCAADYRQFYRYVDYEYWGQGTQVTVSS	low polyreactivity
QVQLVESGGVLVQAGGSLRLSCAASGSTFYTYAMGWYRQAPGKERELVAAITRRGGRTYYADSVKGRFTISRDIAKNTVYLQMNSLKPEDTSVYYCAAYPWATCYGEWGQGTQVTVSS	high polyreactivity
QVQLVESGGVLVQAGGSLRLSCAASGYINGRYVMGWYRTAPGKETELVAAITSSGGSTYYADSVKGRFTISRDNAKNTVYLQINILSPDDTAVYYCAAPTYGRFLRNDYWGPGTQVTVSS	high polyreactivity
